T1: human CD52 on human T-cell lymphoma HUT-78 cells (human, UniProt P31358 25-36)
T1 construct: whole, on cells; also called CAMPATH-1 antigen; CD52 positive lymphoma cells
T1 chain (looked up): GQNDTSQTSSPS


Columns and labels:
[1] = molecular target: target antigen of mab 231 on canine lymphoma cells (canine); test: FACS on canine lymphoma cells positive for the mab 231 antigen, FITC anti-dog IgG secondary
[2] = molecular target: T1, human CD52 on human T-cell lymphoma …; test: FACS on HUT-78 cells, about 2 ug primary antibody, FITC goat anti-dog IgG secondary
Description: The binding of the antibody variants of the present invention was assessed using a fluorescence-activated cell sorter (FACS). In the present example, the antibody variants were incubated with the CD52 positive cells and the amount of bound antibody was assessed following incubation with a fluorescent-labeled reporter reagent. The reporter was thereafter measured by FACS.
Briefly, for each assay, one million cells of the human T-cell lymphoma HUT-78 cells were resuspended in FACS buffer (PBS+2% FBS). About 2 ug of the primary antibody were added to the cells and the samples were incubated at 4° C. for 1 hour. The primary antibody was provided as supernatants from transfected cells with recombinant antibody constructs or from purified antibody preparation. The rat anti-human CD52 mAb (Serotec) was added to the cells as a control. One ml of FACS buffer was added and cells were spin down for 3 min at 800×g in Eppendorf microcentrifuge. The cells were washed with 1 ml FACS buffer and spin down again. The secondary antibodies such as fluorescein-isothiocynate (FITC) conjugated goat anti-rat (Jackson ImmunoResearch), or the FITC-conjugated goat anti-dog IgG (H+L) (Bethyl Laboratories) were added in 100 μl of FACS buffer supplemented with 1% BSA to appropriate tubes and the tubes were incubated at 4° C. for 30 minutes. The wash steps were repeated. The cells were then resuspended in 500 μl FACS buffer and transferred into 12×75 mm polystyrene test tubes. The cells were analyzed by FACS with a FacScan cytometer using the CellQuest software (Becton-Dickenson). Several controls were utilized to determine the background fluorescence: (i) one tube of cells was incubated with the FITC-conjugated secondary antibody without the primary antibody, (ii) one tube of cells was incubated with PBS only, and (iii) one tube was incubated with the primary antibody without the FITC-conjugated secondary antibody.

Row | Binder | Binding (%) [1] | Binding (%) [2]
1 | VET106 VET217 anti-canine lymphoma antibody variant (mab 231 variable domains, canine lambda constant) (antibody) light: DIQMNQSPSSLSASLGDTITITCHASQNINVWLSWYQQKPGNIPKLLIYKASNLHTGVPSRFSGSGSGTGFTLTISSLQPEDIATYYCQQGQSYPLTFGGGTKLEIKGQPKASPSVTLFPPSSEELGANKATLVCLISDFYPSGVTVAWKADGSPITQGVETTKPSKQSNNKYAASSYLSLTPDKWKSHSSFSCLVTHEGSTVEKKVAPAECS heavy: EVKLVESGGGLVQPGGSLKLSCATSGFTFSDYYMYWVRQTPEKRLEWVAYISNGGGSTYYPDTVKGRFTISRDNAKNTLYLQMSRLKSEDTAMYYCARHGGYYAMDYWGQGTLVTVSSASTTAPSVFPLAPSCGSTSGSTVALACLVSGYFPEPVTVSWNSGSLTSGVHTFPSVLQSSGLYSLSSMVTVPSSRWPSETFTCNVAHPASKTKVDKPVPKRENGRVPRPPDCPKCPAPEMLGGPSVFIFPPKPKDTLLIARTPEVTCVVVDLDPEDPEVQISWFVDGKQMQTAKTQPREEQFNGTYRVVSVLPIGHQDWLKGKQFTCKVNNKALPSPIERTISKARGQAHQPSVYVLPPSREELSKNTVSLTCLIKDFFPPDIDVEWQSNGQQEPESKYRTTPPQLDEDGSYFLYSKLSVDKSRWQRGDTFICAVMHEALHNHYTQKSLSHSPGK | 30.3% | –
2 | VET107 VET217 anti-canine lymphoma antibody variant (mab 231 variable domains, canine kappa constant) (antibody) light: DIQMNQSPSSLSASLGDTITITCHASQNINVWLSWYQQKPGNIPKLLIYKASNLHTGVPSRFSGSGSGTGFTLTISSLQPEDIATYYCQQGQSYPLTFGGGTKLEIKNDAQPAVYLFQPSPDQLHTGSASVVCLLNSFYPKDINVKWKVDGVIQDTGIQESVTEQDKDSTYSLSSTLTMSSTEYLSHELYSCEITHKSLPSTLIKSFQRSECQRVD heavy: EVKLVESGGGLVQPGGSLKLSCATSGFTFSDYYMYWVRQTPEKRLEWVAYISNGGGSTYYPDTVKGRFTISRDNAKNTLYLQMSRLKSEDTAMYYCARHGGYYAMDYWGQGTLVTVSSASTTAPSVFPLAPSCGSTSGSTVALACLVSGYFPEPVTVSWNSGSLTSGVHTFPSVLQSSGLYSLSSMVTVPSSRWPSETFTCNVAHPASKTKVDKPVPKRENGRVPRPPDCPKCPAPEMLGGPSVFIFPPKPKDTLLIARTPEVTCVVVDLDPEDPEVQISWFVDGKQMQTAKTQPREEQFNGTYRVVSVLPIGHQDWLKGKQFTCKVNNKALPSPIERTISKARGQAHQPSVYVLPPSREELSKNTVSLTCLIKDFFPPDIDVEWQSNGQQEPESKYRTTPPQLDEDGSYFLYSKLSVDKSRWQRGDTFICAVMHEALHNHYTQKSLSHSPGK | 20.8% | –
3 | VET114 VET224 antibody variant (anti-CD52, canine FR4 in both chains) (antibody, Constant domains are added as separate pieces because the printed entries are variable domains only) light: DIKMTQSPSFLSASVGDRVTLNCKASQNIDKYLNWYQQKLGESPKLLIYNTNNLQTGIPSRFSGSGSGTDFTLTISSLQPEDVATYFCLQHISRPRTFGGGTHLTVLGQPKASPSVTLFPPSSEELGANKATLVCLISDFYPSGVTVAWKADGSPITQGVETTKPSKQSNNKYAASSYLSLTPDKWKSHSSFSCLVTHEGSTVEKKVAPAECS heavy: EVKLLESGGGLVQPGGSMRLSCAGSGFTFTDFYMNWIRQPAGKAPEWLGFIRDKAKGYTTEYNPSVKGRFTISRDNTQNMLYLQMNTLRAEDTATYYCAREGHTAAPFDYWGQGTLVTVSSASTTAPSVFPLAPSCGSTSGSTVALACLVSGYFPEPVTVSWNSGSLTSGVHTFPSVLQSSGLYSLSSMVTVPSSRWPSETFTCNVAHPASKTKVDKPVPKRENGRVPRPPDCPKCPAPEMLGGPSVFIFPPKPKDTLLIARTPEVTCVVVDLDPEDPEVQISWFVDGKQMQTAKTQPREEQFNGTYRVVSVLPIGHQDWLKGKQFTCKVNNKALPSPIERTISKARGQAHQPSVYVLPPSREELSKNTVSLTCLIKDFFPPDIDVEWQSNGQQEPESKYRTTPPQLDEDGSYFLYSKLSVDKSRWQRGDTFICAVMHEALHNHYTQKSLSHSPGK | – | 47.8%
4 | VET112 VET223 antibody variant (anti-CD52, canine FR1 and FR4 in both chains) (antibody, Constant domains are added as separate pieces because the printed entries are variable domains only) light: QSVLTQPASVSGSLGQRVTISCKASQNIDKYLNWYQQKLGESPKLLIYNTNNLQTGIPSRFSGSGSGTDFTLTISSLQPEDVATYFCLQHISRPRTFGGGTHLTVGQPKASPSVTLFPPSSEELGANKATLVCLISDFYPSGVTVAWKADGSPITQGVETTKPSKQSNNKYAASSYLSLTPDKWKSHSSFSCLVTHEGSTVEKKVAPAECS heavy: EVQLVESGGDLVKPGGSLRLSCAGSGFTFTDFYMNWIRQPAGKAPEWLGFIRDKAKGYTTEYNPSVKGRFTISRDNTQNMLYLQMNTLRAEDTATYYCAREGHTAAPFDYWGQGTLVTVSSASTTAPSVFPLAPSCGSTSGSTVALACLVSGYFPEPVTVSWNSGSLTSGVHTFPSVLQSSGLYSLSSMVTVPSSRWPSETFTCNVAHPASKTKVDKPVPKRENGRVPRPPDCPKCPAPEMLGGPSVFIFPPKPKDTLLIARTPEVTCVVVDLDPEDPEVQISWFVDGKQMQTAKTQPREEQFNGTYRVVSVLPIGHQDWLKGKQFTCKVNNKALPSPIERTISKARGQAHQPSVYVLPPSREELSKNTVSLTCLIKDFFPPDIDVEWQSNGQQEPESKYRTTPPQLDEDGSYFLYSKLSVDKSRWQRGDTFICAVMHEALHNHYTQKSLSHSPGK | – | 24.4%

The next lines start with the values.

Row | Binding (%) [1] | Binding (%) [2] | Binder
5 | – | 40.1% | VET114 VET223 antibody variant (anti-CD52) (antibody, Constant domains are added as separate pieces because the printed entries are variable domains only) light: DIKMTQSPSFLSASVGDRVTLNCKASQNIDKYLNWYQQKLGESPKLLIYNTNNLQTGIPSRFSGSGSGTDFTLTISSLQPEDVATYFCLQHISRPRTFGGGTHLTVLGQPKASPSVTLFPPSSEELGANKATLVCLISDFYPSGVTVAWKADGSPITQGVETTKPSKQSNNKYAASSYLSLTPDKWKSHSSFSCLVTHEGSTVEKKVAPAECS heavy: EVQLVESGGDLVKPGGSLRLSCAGSGFTFTDFYMNWIRQPAGKAPEWLGFIRDKAKGYTTEYNPSVKGRFTISRDNTQNMLYLQMNTLRAEDTATYYCAREGHTAAPFDYWGQGTLVTVSSASTTAPSVFPLAPSCGSTSGSTVALACLVSGYFPEPVTVSWNSGSLTSGVHTFPSVLQSSGLYSLSSMVTVPSSRWPSETFTCNVAHPASKTKVDKPVPKRENGRVPRPPDCPKCPAPEMLGGPSVFIFPPKPKDTLLIARTPEVTCVVVDLDPEDPEVQISWFVDGKQMQTAKTQPREEQFNGTYRVVSVLPIGHQDWLKGKQFTCKVNNKALPSPIERTISKARGQAHQPSVYVLPPSREELSKNTVSLTCLIKDFFPPDIDVEWQSNGQQEPESKYRTTPPQLDEDGSYFLYSKLSVDKSRWQRGDTFICAVMHEALHNHYTQKSLSHSPGK
6 | – | 30.6% | VET112 VET224 antibody variant (anti-CD52) (antibody, Constant domains are added as separate pieces because the printed entries are variable domains only) light: QSVLTQPASVSGSLGQRVTISCKASQNIDKYLNWYQQKLGESPKLLIYNTNNLQTGIPSRFSGSGSGTDFTLTISSLQPEDVATYFCLQHISRPRTFGGGTHLTVGQPKASPSVTLFPPSSEELGANKATLVCLISDFYPSGVTVAWKADGSPITQGVETTKPSKQSNNKYAASSYLSLTPDKWKSHSSFSCLVTHEGSTVEKKVAPAECS heavy: EVKLLESGGGLVQPGGSMRLSCAGSGFTFTDFYMNWIRQPAGKAPEWLGFIRDKAKGYTTEYNPSVKGRFTISRDNTQNMLYLQMNTLRAEDTATYYCAREGHTAAPFDYWGQGTLVTVSSASTTAPSVFPLAPSCGSTSGSTVALACLVSGYFPEPVTVSWNSGSLTSGVHTFPSVLQSSGLYSLSSMVTVPSSRWPSETFTCNVAHPASKTKVDKPVPKRENGRVPRPPDCPKCPAPEMLGGPSVFIFPPKPKDTLLIARTPEVTCVVVDLDPEDPEVQISWFVDGKQMQTAKTQPREEQFNGTYRVVSVLPIGHQDWLKGKQFTCKVNNKALPSPIERTISKARGQAHQPSVYVLPPSREELSKNTVSLTCLIKDFFPPDIDVEWQSNGQQEPESKYRTTPPQLDEDGSYFLYSKLSVDKSRWQRGDTFICAVMHEALHNHYTQKSLSHSPGK
7 | – | 51.4% | VET111 VET222 chimeric antibody (rat anti-human CD52 variable domains on canine constant domains) (antibody, Expressed in 293F cells and used as supernatant or protein A purified) light: DIKMTQSPSFLSASVGDRVTLNCKASQNIDKYLNWYQQKLGESPKLLIYNTNNLQTGIPSRFSGSGSGTDFTLTISSLQPEDVATYFCLQHISRPRTFGTGTKLELKGQPKASPSVTLFPPSSEELGANKATLVCLISDFYPSGVTVAWKADGSPITQGVETTKPSKQSNNKYAASSYLSLTPDKWKSHSSFSCLVTHEGSTVEKKVAPAECS heavy: EVKLLESGGGLVQPGGSMRLSCAGSGFTFTDFYMNWIRQPAGKAPEWLGFIRDKAKGYTTEYNPSVKGRFTISRDNTQNMLYLQMNTLRAEDTATYYCAREGHTAAPFDYWGQGVMVTVSSASTTAPSVFPLAPSCGSTSGSTVALACLVSGYFPEPVTVSWNSGSLTSGVHTFPSVLQSSGLYSLSSMVTVPSSRWPSETFTCNVAHPASKTKVDKPVPKRENGRVPRPPDCPKCPAPEMLGGPSVFIFPPKPKDTLLIARTPEVTCVVVDLDPEDPEVQISWFVDGKQMQTAKTQPREEQFNGTYRVVSVLPIGHQDWLKGKQFTCKVNNKALPSPIERTISKARGQAHQPSVYVLPPSREELSKNTVSLTCLIKDFFPPDIDVEWQSNGQQEPESKYRTTPPQLDEDGSYFLYSKLSVDKSRWQRGDTFICAVMHEALHNHYTQKSLSHSPGK

From patent US20130344077A1 (VET THERAPEUTICS, published 2013)
